Measurements as given in US9895420.

Target: chimeric-IL-1Ra (IL-1beta propeptide residues 1-120, HindIII-derived Lys-Leu linker, mature IL-1Ra)

B1: neutrophil elastase (Athens Research & Technology) (protein)
chain: IVGGRRARPHAWPFMVSLQLRGGHFCGATLIAPNFVMSAAHCVANVNVRAVRVVLGAHNLSRREPTRQVFAVQRIFENGYDPVNLLNDIVILQLNGSATINANVQVAQLPAQGRRLGNGVQCLAMGWGLLGRNRGIASVLQELNVTVVTSLCRRSNVCTLVRGRQAGVCFGDSGSPLVCNGLIHGIASFVRGGCASGLYPDAFAPVAQFVNWIDSIIQ
With B1 the “cleavage of chimeric-IL-1Ra, Western blot with anti-IL-1Ra antibody” value was “chimeric-IL-1Ra is cleaved to form a ˜20 kDa fragment, comparable in size to IL-1Ra”.
